Test [1] addresses T1, LAMP2 (endogenous) (UniProt P13473 29-410, limits assumed, glycosylated (binding told as glycan-dependent)).
T1 construct: Integral lysosomal membrane glycoprotein
Briefly: co-IP, anti-FLAG IP, blot for endogenous LAMP2, HEK293T, 1 mM LLOMe 30 min (FIG. 2B). How it is done:
(A) APEX2 proximity biotinylation analysis. […] Biotinylated proteins were then affinity-isolated on streptavidin beads and analyzed by immunoblotting in response to LLOMe. (B) Co-immunoprecipitation (Co-IP) analysis of interactions between LAMP2 and Gal9. HEK293T cells expressing FLAG-tagged Gal9 or glycan recognition mutant forms of Gal9 (individual R65A, R239A, or double/combined R65A/R239A were treated with 1 mM LLOMe for 30 min in full medium. IP, anti-FLAG antibody; immunoblotting with endogenous LAMP2. (C) Immunofluorescence confocal microscopy visualization of Gal9 puncta in Hula cells transfected with FLAG-Gal9^WT or double mutant FLAG-Gal9^{R65A/R239A} and treated with lysosomal damaging agent (1 mM LLOMe) in full medium for 30 min. Cells were immunostained for FLAG-Gal9. Scale bar, 10 μM . (D) Analysis of FLAG-Gal9 puncta formation in Huh7 WT cells transfected with FLAG-Gal9 and respective mutants. Cells as in (C) were treated as in (C), measured by FICM (blue: nuclei, Hoechst 33342; green: anti-FLAG antibody, Alexa-488). White masks, computer algorithm-defined cell boundaries; green masks, computer-identified Gal9 puncta. (E) Immunofluorescence confocal microscopy visualization of Ub puncta in Gal9WT^Huh7 and Gal9KO^Huh7 cells complemented with FLAG-Gal9^WT or FLAG-Gal9^{R65A/R239A}. […] (F) Endogenous Ub puncta quantified by HCM. […]

In another test the target is T2, USP9X (endogenous) (UniProt Q93008 1-2554, limits assumed).
T2 construct: also called deubiquitinating enzyme USP9X; DUB USP9X
T2 sequence (Q93008 whole entry): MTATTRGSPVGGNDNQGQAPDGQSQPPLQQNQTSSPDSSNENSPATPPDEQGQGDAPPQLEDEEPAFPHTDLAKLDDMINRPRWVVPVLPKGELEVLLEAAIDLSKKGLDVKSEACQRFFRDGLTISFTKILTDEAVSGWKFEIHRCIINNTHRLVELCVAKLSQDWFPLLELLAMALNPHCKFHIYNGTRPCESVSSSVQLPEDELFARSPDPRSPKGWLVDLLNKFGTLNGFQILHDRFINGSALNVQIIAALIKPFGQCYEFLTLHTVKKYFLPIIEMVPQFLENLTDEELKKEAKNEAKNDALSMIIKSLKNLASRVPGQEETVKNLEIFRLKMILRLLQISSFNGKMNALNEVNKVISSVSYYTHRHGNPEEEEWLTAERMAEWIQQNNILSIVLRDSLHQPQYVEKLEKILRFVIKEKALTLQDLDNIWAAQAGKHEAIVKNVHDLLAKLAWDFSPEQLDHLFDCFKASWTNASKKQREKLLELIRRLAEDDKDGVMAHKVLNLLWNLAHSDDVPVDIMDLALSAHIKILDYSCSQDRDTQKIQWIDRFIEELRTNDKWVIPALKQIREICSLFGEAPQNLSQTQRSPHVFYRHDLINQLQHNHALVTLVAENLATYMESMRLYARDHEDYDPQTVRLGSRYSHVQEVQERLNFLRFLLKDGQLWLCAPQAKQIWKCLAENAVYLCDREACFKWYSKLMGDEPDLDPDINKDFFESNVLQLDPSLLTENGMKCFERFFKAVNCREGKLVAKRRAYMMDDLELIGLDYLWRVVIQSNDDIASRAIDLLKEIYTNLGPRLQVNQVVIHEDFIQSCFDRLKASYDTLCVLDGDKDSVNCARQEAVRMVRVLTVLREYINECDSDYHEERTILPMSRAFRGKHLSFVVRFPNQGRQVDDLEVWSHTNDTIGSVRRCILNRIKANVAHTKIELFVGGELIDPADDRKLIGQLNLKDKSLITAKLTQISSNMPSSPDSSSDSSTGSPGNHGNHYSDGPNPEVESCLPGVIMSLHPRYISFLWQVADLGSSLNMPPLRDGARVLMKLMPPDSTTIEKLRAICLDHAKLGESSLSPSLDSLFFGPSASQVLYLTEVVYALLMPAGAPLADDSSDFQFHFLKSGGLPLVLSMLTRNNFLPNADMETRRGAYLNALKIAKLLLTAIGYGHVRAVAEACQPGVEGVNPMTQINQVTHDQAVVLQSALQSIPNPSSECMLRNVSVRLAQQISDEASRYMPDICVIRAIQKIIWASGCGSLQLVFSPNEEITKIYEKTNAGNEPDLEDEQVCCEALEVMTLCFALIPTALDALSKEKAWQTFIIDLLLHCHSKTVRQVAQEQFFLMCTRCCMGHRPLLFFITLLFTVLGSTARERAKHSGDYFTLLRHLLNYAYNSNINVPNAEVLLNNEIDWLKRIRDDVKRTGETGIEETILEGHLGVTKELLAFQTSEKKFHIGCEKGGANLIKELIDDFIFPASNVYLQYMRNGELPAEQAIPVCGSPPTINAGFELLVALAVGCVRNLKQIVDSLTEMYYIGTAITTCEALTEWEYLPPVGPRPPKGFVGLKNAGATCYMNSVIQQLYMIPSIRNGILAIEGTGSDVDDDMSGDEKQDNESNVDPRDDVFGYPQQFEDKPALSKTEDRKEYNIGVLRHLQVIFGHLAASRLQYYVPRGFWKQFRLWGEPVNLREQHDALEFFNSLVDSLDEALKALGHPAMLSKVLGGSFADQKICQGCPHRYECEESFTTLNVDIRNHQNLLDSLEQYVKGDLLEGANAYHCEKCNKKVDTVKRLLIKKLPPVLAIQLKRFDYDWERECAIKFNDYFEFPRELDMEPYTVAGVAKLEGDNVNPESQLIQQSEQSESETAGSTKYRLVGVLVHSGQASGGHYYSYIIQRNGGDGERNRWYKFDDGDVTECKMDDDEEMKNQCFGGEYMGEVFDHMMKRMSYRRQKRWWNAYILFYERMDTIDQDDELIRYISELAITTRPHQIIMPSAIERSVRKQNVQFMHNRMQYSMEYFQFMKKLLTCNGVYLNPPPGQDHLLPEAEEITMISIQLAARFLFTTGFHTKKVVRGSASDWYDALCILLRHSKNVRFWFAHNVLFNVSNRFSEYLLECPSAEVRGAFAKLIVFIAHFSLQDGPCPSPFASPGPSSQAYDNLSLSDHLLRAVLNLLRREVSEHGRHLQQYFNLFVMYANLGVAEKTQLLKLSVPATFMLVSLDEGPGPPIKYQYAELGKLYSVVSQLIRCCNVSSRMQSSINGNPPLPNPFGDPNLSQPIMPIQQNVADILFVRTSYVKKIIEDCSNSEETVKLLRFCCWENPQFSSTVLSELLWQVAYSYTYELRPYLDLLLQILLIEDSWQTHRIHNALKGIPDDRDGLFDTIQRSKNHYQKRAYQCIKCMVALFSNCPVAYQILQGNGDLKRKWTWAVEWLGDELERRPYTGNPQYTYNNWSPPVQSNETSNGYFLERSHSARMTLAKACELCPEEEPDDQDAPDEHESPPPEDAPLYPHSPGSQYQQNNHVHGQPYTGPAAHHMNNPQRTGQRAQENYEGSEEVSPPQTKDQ
Briefly: co-IP, anti-FLAG IP, blot for endogenous USP9X, HEK293T (FIG. 3C).

Test [2] concerns the target T1, LAMP2 (endogenous). Briefly: co-IP, anti-GFP IP of GFP-tagged galectins, blot for endogenous LAMP2 (FIG. S2B). The text has this:
(B) Co-IP analysis of galectins and LAMP2. Cells expressing GFP-tagged galectins were subjected to anti-GFP immunoprecipitation followed by immunoblotting for endogenous LAMP2. (C) Schematic, strategy for stable HeLa Flp-In Gal9^Tet-ON which stably express mCherry-Gal9 induced by tetracycline. HeLa Flp-In Gal9^Tet-ON cells treated with LLOMe in a time dependent manner quantified by HCM. (D) HCM visualization of mCherry-Gal9 localization relative to LAMP2-positive lysosomes. Cells as in (C) were treated with LLOMe for 30 min in full medium and immunostained for endogenous LAMP2 and mCherry Gal9. (E) Immunofluorescence confocal microscopy visualization of mCherry-Gal9 localization relative to LAMP2-positive lysosomes. Cells as in (D) immunostained for endogenous LAMP2 and mCherry Gal9. Scale bar, 10 μM. (F) HCM visualization of mCherry-Gal9 localization relative to endogenous Ub puncta. Cells as in (C) were treated with LLOMe for 30 min in full medium and immunostained for endogenous Ub and mCherry Gal9. (G) Immunofluorescence confocal microscopy visualization of mcherry-Gal9 localization relative to endogenous Ub and LAMP1-positive lysosomes. Cells as in (C) were treated with LLOMe for 30 min in full medium and immunostained for endogenous Ub, LAMP1 and mCherry Gal9. Scale bar, 10 μM. […]

Two molecules from patent publication US20210205286A1 (UNM RAINFOREST INNOVATIONS, published 2021) can be followed below.

T1 sequence (P13473 29-410 limits assumed): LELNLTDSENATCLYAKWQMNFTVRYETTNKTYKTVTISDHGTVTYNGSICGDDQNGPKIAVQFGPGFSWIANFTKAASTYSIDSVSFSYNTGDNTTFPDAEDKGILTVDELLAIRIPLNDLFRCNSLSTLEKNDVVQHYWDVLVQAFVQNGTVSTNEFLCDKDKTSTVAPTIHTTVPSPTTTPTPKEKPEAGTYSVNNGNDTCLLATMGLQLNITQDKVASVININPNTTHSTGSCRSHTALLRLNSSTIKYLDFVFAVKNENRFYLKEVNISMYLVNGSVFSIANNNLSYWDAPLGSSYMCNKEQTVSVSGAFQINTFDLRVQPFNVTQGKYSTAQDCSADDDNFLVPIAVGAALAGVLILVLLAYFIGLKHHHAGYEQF

B1: FLAG-Gal9^R65A/R239A (other, UniProt O00182-2 1-323, looked up)
chain: MAFSGSQAPYLSPAVPFSGTIQGGLQDGLQITVNGTVLSSSGTRFAVNFQTGFSGNDIAFHFNPAFEDGGYVVCNTRQNGSWGPEERKTHMPFQKGMPFDLCFLVQSSDFKVMVNGILFVQYFHRVPFHRVDTISVNGSVQLSYISFQPPGVWPANPAPITQTVIHTVQSAPGQMFSTPAIPPMMYPHPAYPMPFITTILGGLYPSKSILLSGTVLPSAQRFHINLCSGNHIAFHLNPAFDENAVVRNTQIDNSWGSEERSLPRKMPFVRGQSFSVWILCEAHCLKVAVDGQHLFEYYHRLRNLPTINRLEVGGDIQLTHVQT
notes: also called double mutant; glycan recognition mutant; not shown: FLAG tag
As to B1, the binding result is on record as “no binding” with LAMP2 (endogenous) [1] and “binds” with USP9X (endogenous).

B2: GFP-Gal8 (other, UniProt O00214 1-317, looked up)
chain: MMLSLNNLQNIIYNPVIPFVGTIPDQLDPGTLIVIRGHVPSDADRFQVDLQNGSSMKPRADVAFHFNPRFKRAGCIVCNTLINEKWGREEITYDTPFKREKSFEIVIMVLKDKFQVAVNGKHTLLYGHRIGPEKIDTLGIYGKVNIHSIGFSFSSDLQSTQASSLELTEISRENVPKSGTPQLRLPFAARLNTPMGPGRTVVVKGEVNANAKSFNVDLLAGKSKDIALHLNPRLNIKAFVRNSFLQESWGEEERNITSFPFSPGMYFEMIIYCDVREFKVAVNGVHSLEYKHRFKELSSIDTLEINGDIHLLEVRSW
notes: also called Galectin 8; GFP-tagged galectin; not shown: GFP
B2: the binding result with LAMP2 (endogenous) [2] is “no binding”.
